This note sets out measurements from patent US20190262327A1, “COMBINATION OF A BACE INHIBITOR AND AN ANTIBODY OR ANTIGEN-BINDING FRAGMENT FOR THE TREATMENT OF A DISORDER ASSOCIATED WITH THE ACCUMULATION OF AMYLOID BETA” (ASTRAZENECA AB, priority 2016, published 2019).

Residue numbers refer to the chain shown, from its start.

This assay concerns the target T1, human Amyloid beta 1-42 peptide (Homo sapiens, UniProt P05067).
T1 construct: biotinylated human Amyloid beta 1-42 peptide (rpeptide, USA; cat: A1117); purchased rPeptide, USA A1117; host or cells: synthetic peptide
Kind of assay: Surface Plasmon Resonance kinetic profiling of purified scFv (ProteOn). Format: binding. As to conditions: biotinylated human Amyloid beta 1-42 on streptavidin chip. The text has this:
Surface Plasmon Resonance was used to analyse the purified scFv clones that had shown significant improvement in binding affinity for human Amyloid beta 1-42 peptide over the parent sequence, Abet0144-GL, in the HTRF™ epitope competition assay (sections 1.3-1.6). Briefly, the ProteOn Protein Interaction Array System (BioRad, USA) was used to assess the kinetic parameters of the interaction between each purified scFv and synthetically produced human Amyloid beta 1-42 peptide. These experiments were performed essentially as described by Karlsson et al. (Karlsson et al., 1991).
The affinity of binding between each test scFv and human Amyloid beta 1-42 was estimated using assays in which biotinylated synthetic human Amyloid beta 1-42 peptide (rPeptide, USA; cat: Al 117) was non-covalently bound via a biotin/streptavidin interaction to a proprietary streptavidin chip (NTA 176-5021) at five different surface densities. The chip surface was regenerated between cycles by a single 60 second injection of 10 mM Glycine pH 2.0 to remove scFv bound to the peptide.
Each scFv at 100-200 nM was sequentially passed over the peptide surface for a sufficient amount of time to observe sensorgrams that could be fitted to an appropriate binding model with confidence. An irrelevant scFv blank was subtracted from the main dataset to reduce the impact of any buffer artefacts or non-specific binding effects. An appropriate binding model was then fitted to the data.

T1 sequence (P05067 672-713): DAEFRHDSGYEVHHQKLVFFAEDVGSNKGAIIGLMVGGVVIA

B1: Abet0343: optimized anti-Aβ1-42 clone from VH1:VH2:VL3 recombination library (protein)
scFv (part 1 of 2): EVQLLESGGGLVQPGGSLRLSCAASGFNFNHQVMWWVRQAPGKGLEWVSVIGKTNENIAYADSVKGRFTISRDNSKNTLYLQMNSLRAEDTAVYYCAREWMDHSRPYYYYGMDVWGQGTLVTVSS
scFv (part 2 of 2): QSVLTQPPSVSVSPGQTASITCSGHNLEDKFASWYQQKSGQSPVLVIYRDDKRPSGIPERFSASNSGHTATLTISGTQATDEADYYCSSQDTVTRVFGGGTKLTVL
modifications: left off: small tags and cut ends
notes: optimized anti-Aβ1-42 clone from VH1:VH2:VL3 recombination library
On to B1, for which the “ka” value worked out at 120000 M⁻¹ s⁻¹ and the “kd” value stood at 2.25e-05 s⁻¹.

B2: Abet0371: optimized anti-Aβ1-42 clone derived from Abet0144-GL (protein)
scFv (part 1 of 2): EVQLSESGGGLVQPGGSLRLSCAASHDAFPFDTMWWVRQAPGKGLEWVSVIGSSGGTTVYADSVKGRFTVSRDNSKNTLYLQMNSLRAEDTAVYYCAREWMDHSRPYYYYGMDVWGQGTLVTVSS
scFv (part 2 of 2): B1 scFv (part 2 of 2) with Q1S, S2Y, V3E, L27I, E28S, D29S, K30S, F31W, A32V, S39P
modifications: left off: small tags and cut ends
notes: optimized anti-Aβ1-42 clone derived from Abet0144-GL
For B2, the “ka” value was found to be 357000 M⁻¹ s⁻¹ and the “kd” value was 0.000272 s⁻¹.

B3: Abet0368: optimized anti-Aβ1-42 clone derived from Abet0144-GL (protein)
scFv (part 1 of 2): EVQLLESGGGLVQPGGSLRLSCAASGFDFGPSPMWWVRQAPGKGLEWVSVIGKDTQNSTYADSVKGRFTISRDNSKDTLYLQMNSLKAEDTAVYYCAREWMDHSRPYYYYGMDVWGQGTLVTVSS
scFv (part 2 of 2): B1 scFv (part 2 of 2) with Q1S, S2Y, V3E, A32T, T77A
modifications: left off: small tags and cut ends
notes: as for B2
Turning to B3, the “ka” value turned out to be 187000 M⁻¹ s⁻¹ and the “kd” value is 9e-05 s⁻¹.

B4: Abet0344: optimized anti-Aβ1-42 clone derived from Abet0144-GL (protein)
scFv (part 1 of 2): EVQLLESGGGLVQPGGSLSLSCAASGFTFSVYTMWWVRQAPGKGLEWVSVIGGNETRKAYADSVKGRFTISRDNSKNRLYLQMNSLRAEDTAVYYCAREWMDHSRPYYYYGMDVWGQGTLVTVSS
scFv (part 2 of 2): B1 scFv (part 2 of 2) with S88A, S89T, T92N, V93F
modifications: left off: small tags and cut ends
notes: as for B2
For B4, the “ka” value came out at 77500 M⁻¹ s⁻¹ and the “kd” value was found to be 5.73e-05 s⁻¹.

B5: Abet0372: optimized anti-Aβ1-42 clone derived from Abet0144-GL (protein)
scFv (part 1 of 2): EVQLLESGGGLVQPGGSLRLSCAASSDMFNIETMWWVRQAPGKGLEWVSVIGKGMNNVSYADSVKGRFTISRDNSKNTLYLQMNSLRAEDTAVYYCAREWMDHSRPYYYYGMDVWGQGTLVTVSS
scFv (part 2 of 2): B1 scFv (part 2 of 2) with Q1S, S2Y, V3E, S39P
modifications: left off: small tags and cut ends
notes: as for B2
Take B5: the “ka” value turned out to be 243000 M⁻¹ s⁻¹ and the “kd” value was determined as 0.000176 s⁻¹.

B6: Abet0370: optimized anti-Aβ1-42 clone derived from Abet0144-GL (protein)
scFv (part 1 of 2): B1 scFv (part 1 of 2) with N28H, N30P, H31M, Q32S, V33A, K53E, N55P, N57R, I58Q, N77S
scFv (part 2 of 2): SYELTQPPSVSVSPGQTASITCTTPHFNSKFASWYQQKPGQSPVLVIYRDDKRPSGIPERFSASNSGHTATLTISGTQAMDEADYYCQAQDSTTRVFGGGTRLTVL
modifications: left off: small tags and cut ends
notes: as for B2
As to B6, the “ka” value was 119000 M⁻¹ s⁻¹ and the “kd” value was 7.76e-05 s⁻¹.
